First the molecules themselves.
B1: FLAG-tagged 3DL1*001, P43629 M165A (protein)
chain: HMGGQDKPFLSAWPSAVVPRGGHVTLRCHYRHRFNNFMLYKEDRIHIPIFHGRIFQESFNMSPVTTAHAGNYTCRGSHPHSPTGWSAPSNPVVIMVTGNHRKPSLLAHPGPLVKSGERVILQCWSDIMFEHFFLHKEGISKDPSRLVGQIHDGVSKANFSIGPMALALAGTYRCYGSVTHTPYQLSAPSDPLDIVVTGPYEKPSLSAQPGPKVQAGESVTLSCSSRSSYDMYHLSREGGAHERRLPAVRKVNRTFQADFPLGPATHGGTYRCFGSFRHSPYEWSDPSDPLLVSVTGNPSSSWPSPTEPSSKSGNPRHLHILIGTSVVIILFILLLFFLLHLWCSNKKNAAVMDQEPAGNRTANSEDSDEQDPEEVTYAQLDHCVFTQRKITRPSQRPKTPPTDTILYTELPNAKPRSKVVSCP
B2: FLAG-tagged 3DL1*001, P43629 L166V (protein)
chain: B1 chain with A165M, L166V
B3: FLAG-tagged 3DL1*001, P43629 Y200F (protein)
chain: B1 chain with A165M, Y200F
B4: FLAG-tagged 3DL1*001, P43629 D230A (protein)
chain: B1 chain with A165M, D230A
B5: FLAG-tagged 3DL1*001, P43629 E282Q (protein)
chain: B1 chain with A165M, E282Q
B6: FLAG-tagged 3DL1*001, P43629 P199A (protein)
chain: B1 chain with A165M, P199A
B7: FLAG-tagged 3DL1*001, P43629 L166A (protein)
chain: B1 chain with A165M, L166A
B8: FLAG-tagged 3DL1*001, P43629 A167G (protein)
chain: B1 chain with A165M, A167G
B9: FLAG-tagged 3DL1*001, P43629 Y200A (protein)
chain: B1 chain with A165M, Y200A
B10: FLAG-tagged 3DL1*001, P43629 E282A (protein)
chain: B1 chain with A165M, E282A

Residue numbers refer to the chain shown, from its start. Names and notes keep the numbering of the source.

One test addresses HLA-B*27:05-KF9 N8H tetramer. In words: tetramer staining of transfected HEK293 cells. The following applies: chain shown with the change; 0.2 μg tetramer; parent: est. 100; read off a plot.
B1: the percent of parent is 61 % of ·001.

For the molecule B2, the percent of parent was 58 % of ·001.

With B3, the percent of parent is 81 % of ·001.

Regarding B4, the percent of parent is 66 % of ·001.

With B5, the percent of parent was 89 % of ·001.

As for B6, the percent of parent is 21 % of ·001.

Take B7: the percent of parent was 45 % of ·001.

Take B8: the percent of parent is 130 % of ·001.

In the case of B9, the percent of parent is 15 % of ·001.

Turning to B10, the percent of parent was 48 % of ·001.

The target in a further test is HLA-B*27:05-KF9 tetramer. In words: tetramer staining of transfected HEK293 cells. Conditions: chain shown with the change; 0.2 μg tetramer; parent: est. 100; read off a plot.
B1: the percent of parent was 60 % of ·001.

Take B2: the percent of parent was 36 % of ·001.

For B3, the percent of parent is 87 % of ·001.

Take B4: the percent of parent was 70 % of ·001.

In the case of B5, the percent of parent was 99 % of ·001.

As to B6, the percent of parent is 21 % of ·001.

Take B7: the percent of parent was 56 % of ·001.

For B8, the percent of parent is 65 % of ·001.

In the case of B9, the percent of parent was 16 % of ·001.

For the molecule B10, the percent of parent is 51 % of ·001.

Source of the values: publication PMC3948114.
